Source: patent publication US20050202508A1, “Biomarker for Parkinson's disease” (priority 2003, published 2005)

Assays:
[1] = biological target: PIF cell surface receptor (DCD receptor) (human); assay: Scatchard analysis of AP-PIF binding to human SH-SY5Y neuronal cells
substantia nigra = assay: In vivo MRM T2-weighted imaging of substantia nigra after MPTP lesion; set-up: species or system mouse
Text: The goal of this study was to develop a non-invasive methodology for functionally assessing the predicative role of novel protein biomarkers in CSF (and serum) for experimental MPTP SN neurodegeneration in pre-clinical models of PD (Aim 4) using MRM imaging technology in collaboration with Dr. Cheuk Tang (Collaborator, Imaging Sciences Laboratory, Dept. Neuroradiology) and Dr. Patrick Hof (Collaborator, Advance Imaging Program, Center for Neurobiology), of Mount Sinai Medical School. The studies are based on the principle that increased iron content found in SN of PD and MPTP models of PD^29-31 may be an index of SN neurodegeneration, which can be monitored by MRM^32,33, longitudinally. Given that MRM measurement is highly sensitive to iron content in SN dopaminergic cells, we hypothesized that MRM may offer a means for non-invasive evaluation of SN neurodegeneration. In exciting ongoing studies, using a 9.4 Tesla micro MRM imager (Bruker Instrument) we collected matched consecutive rostro-caudal T2-weighted in vivo MRM images of the whole brain from the same mouse, prior to and four-days after SN MPTP lesion. […] As predicted, this observation of hypo-intense MRM measurements in the SN post-lesioning is consistent with an elevation in iron content in the degenerating nigrostriatal DAergic neurons. […]

[2] = test system: substantia nigra DAergic neurons; type: in vivo, mouse
Description: In this study SN DAergic lesions in male C57B6/SJ mice were obtained by i.p. MPTP injection (four consecutive injections at 2 hr intervals; 20 mg/kg/body weight (BW) per injection 27); saline injected mice were used as a control (n=4 per group). Four days following MPTP (or saline) injection, mice were anesthetized using a combination of ketamine (50 mg/kg BW) and xylazine (5 mg/kg BW), CSF was then collected from cisterna magna, as previously described^28. Immediately after CSF collection (4 days post-lesioning), mice were sacrificed by cervical dislocation and the brain was collected, preserved under cryoprotection and stored at −80° C. 1 μl of CSF from each animal was analyzed by SELDI technology as described in FIG. 1. […] In panel 3B, number of thyroxine hydroxylase (TH)-immunoreactive DAergic neurons in the SN counted stereologically, with data are expressed as mean+SEM for MPTP and saline groups. In panels A and B, n=4 per group; *P<0.05.

PD patients = details: cited from earlier work
PIF mRNA = PIF mRNA expression after MPP+ treatment, northern blot; type: cell-based; details: MPP+ treatment 12 hr, enriched rat DAergic neuron cultures, FIG. 12A
Text: (§1) The exact molecular mechanisms leading to the pathophysiology of PD are not well understood. MPP^+, a mitochondrial complex I inhibitor, produces PD-type symptoms in humans and laboratory animals and has been used to investigate PD pathogenesis^12,13. MPP^+, the ultimate metabolite of MPTP, is taken up into DAergic neurons where it accumulates in mitochondria and works to inhibit complex I activity. Although the mechanism of MPP^+-induced neurotoxicity is not fully understood, there is increasing evidence supporting the involvement of reactive oxygen species (ROS)^14. […]
(§2) For these studies enriched mesecephalic DAergic cultures were obtained from E16 Sprague Dawley embryos and cultured for 10 days in poly 1-ornithine coated culture dish at a density of 0.5×10^6 cells per well and maintained in Neurobasal medium with B-27 supplement and 0.5 mM glutamine, as previously described^16. In A, following MPP^+ treatment for 12 hr, total RNA was extracted from the neuronal cultures using Ultraspec RNA (Biotecx) and PIF mRNA expression assessed by northern blot hybridization assay using ^32p labeled hPIF cDNA^17 and quantified by phospho-imaging (Molecular Dynamics). […] Non-specific transport was determined in parallel assays conducted in the presence of 1 uM GBR12909 and incorporated [^3H]-dopamine was extracted with NaOH (0.5M) and quantified by liquid scintillation spectrometry

[3] = test system: SY5Y neuroblastoma catecholaminergic cells; assay: MPP+ toxicity in SY5Y cells, MTT assay; type: cell-based; details: 24 hr after exposure to MPP+; dose dependent; FIG. 9
Description: The PD biomarker DCD-1 promotes neurotoxicity in SY5Y cells in a dose dependent manner. In this study cell toxicity in SY5Y cells was assessed 24 hr after exposure to MPP+ using methylthiazoletetrazolium [3 (4,5-dimethylthiazol-2-yl)-2,5-diphenyltetrazolium bromide] (MTT) calorimetric assay, (an index or altered energy metabolism). Values represent Means+SEM of determinations from 2 separate cultures, n=3 cultures chambers per group * P<0.05 between MPP+ and MPP+ and DCD-1 treatment (see FIG. 9).

[4] = test system: rat mesencephalic DAergic neuron cultures; assay: MPP+-mediated neurotoxicity in enriched rat mesencephalic DAergic neuron cultures, [3H]-dopamine uptake assay; type: cell-based
Text: as §1, §2

α-synuclein = assay: alpha-synuclein immunoblot in enriched DAergic neuron cultures after hrPIF treatment; type: cell-based, rat
Text: Because of the recent evidence showing increased α-synuclein expression increases vulnerability to MPP/MPTP^19, we decided to explore the possibility that PIF might have promoted DAergic neurodgeneration through mechanisms that involve α-synuclein expression. […] This evidence is also consistent with work in Drosophila where overexpression of α-synuclein leads to DAergic toxicity^22. In these studies (see FIG. 13) 10 days old enriched […] cultures were obtained as discussed in FIG. 12. In A, following treatment with increasing concentrations of hrPIF, cultures lysed in each well using SDS-PAGE (5 mM Tris-HCl, 2% SDS, 0.1 M DTT, 0.001% Bromphenol blue, 10% glycerol, pH6.8) sample buffer. […] After 5 min incubation at RT in buffer, the Triton X-100 soluble fraction was gently collected from the-dish-. -The remaining Triton-insoluble material was gently rinsed once with ice cold PBS, and collected in buffer N (0.1 M Na2CO3, pH 11.5 with protease inhibitor cocktails). In C, the Triton-insoluble synuclein fraction was collected in the pellet by centrifugation at 16,000 g for 10 min and dissolved in 1×SDS buffer. Immunoblots used monoclonal anti α-synuclein antibody (1:1000, BD Bioscience) and immunoreactivities were visualized densitometrically.

Molecule: N-terminal alkaline phosphatase (AP) C-terminal PIF (DCD) precursor protein fusion protein (from UniProt P81605 20-110) (ligand)
- Kd [1]: 51 nM
- maximum binding concentration (receptors per cell) (PIF receptors per cell) [1]: 30000

Molecule: CN1CC=C(c2ccccc2)CC1 [MPTP]
- decrease in SN T2 density / T2-weighted values vs pre-lesion (substantia nigra; after MPTP lesion, n=2, 9.4 Tesla MRM): approximately 25%
- average normalized SN T2 density (SN T2 density/temporal T2 density) (substantia nigra; post-MPTP lesioning, N=2 animals): 0.6904 ± 0.05
- loss of tyrosine hydroxylase (TH) immunopositive neurons ([2]; MPTP i.p. 4 x 20 mg/kg, 4 days post-lesioning, stereological count): approximately 25%
- 4.6 kDa anionic DCD-like protein in CSF ([2]; mouse, in vivo): induced

Molecule: N[C@@H](Cc1ccc(O)c(O)c1)C(=O)O [L-dopa]
- extension of lifespan of PD patients, on average (PD patients): one

Molecule: C[n+]1ccc(-c2ccccc2)cc1 [MPP^+, 1-Methyl-4-phenylpyridinium ion]
- PIF mRNA expression (PIF mRNA): dose dependently induced

Molecule: DCD-1: human recombinant DCD-1, aa 63-109 of dermcidin precursor, 4.7 kDa (SEQ ID NO:1) (SSLLEKGLDGAKKAVGGLGKLGKDAVEDLESVGKGAVHDVKDVLDSV; homo sapiens)
- effect on MPP+ mediated death (MTT) [3]: potentiates MPP+ mediated death

B1: hrPIF: human recombinant full length dermicidin, His-tagged, expressed in M15 bacterial cells (protein)
chain: YDPEAASAPGSGNPCHEASAAQKENAGEDPGLARQAPKPRKQRSSLLEKGLDGAKKAVGGLGKLGKDAVEDLESVGKGAVHDVKDVLDSVL
modifications: left off: small tags and cut ends
notes: human recombinant full length dermicidin, His-tagged, expressed in M15 bacterial cells
- potentiation of MPP+-mediated neurotoxicity, dopamine uptake assay ([4]; exogenous hrPIF with MPP+, 12 hours, FIG. 12B): ~1.5 fold
- potentiation of MPP+-induced neurotoxicity ([4]; exogenous hrPIF, rat mesencephalic DAergic neuron cultures, summary statement): ~2 fold
- soluble oligomeric α-synuclein protofibrils (α-synuclein; Triton X-100 soluble fraction, FIG. 13B): accumulation
- aggregated α-synuclein (α-synuclein; Triton-insoluble fraction, FIG. 13C): not aggregated α-synuclein
- expression of total α-synuclein (α-synuclein; hrPIF treatment, FIG. 13A): increased expression
